One molecule from patent US20210393713A1 (published 2021) can be followed below.

The test has as its target AAV-PHP.B capsid (AAV9 variant with the […] insert). Nature of the test: SPR. In general terms: SPR reads the build-up and loss of mass on a sensor chip optically.

B1: LY6A as used in SPR (immobilized on the sensor chip, or monomeric in solution) (receptor)
chain: LECYQCYGVPFETSCPSITCPYPDGVCVTQEAAVIVDSQTRKVKNNLCLPICPPNIESMEILGTKVNVKTSCCQEDLCNVAVPNG
B1 gave a Kd of 119 pM.

The term Kd denotes the equilibrium constant for the complex coming apart. A high value points to weaker binding.
